Test results: paper PMC10348681, “Reversible phase separation of ESCRT protein ALIX through tyrosine phosphorylation” (Science Advances, 2023)
Numbering of substitutions follows the chain as printed. In names and notes the source's numbering stands.

B1: CHMP4B121−224^S184C (domain or fragment, UniProt Q9H444 121-224, looked up)
chain: DNMDIDKVDELMQDIADQQELAEEISTAISKPVGFGEEFDEDELMAELEELEQEELDKNLLEICGPETVPLPNVPSIALPSKPAKKKEEEDDDMKELENWAGSM
notes: codon-optimized synthetic gene; Monomeric by AUC; also called charged multivesicular body protein 4B C-terminal fragment; not shown: GB1, N-terminal, cleaved
B2: CHMP4C121−233^S191C,AAA (domain or fragment, UniProt Q96CF2 121-233, looked up)
chain: ENMDLNKIDDLMQEITEQQDIAQEISEAFSQRVGFGDDFDEDELMAELEELEQEELNKKMTNIRLPNVPSCSLPAQPNRKPGMSSTARRSRAASSQRAEEEDDDAKQAAAAAT
notes: codon-optimized synthetic gene; also called CHMP4C with three alanine substitutions in its α6 motif (I225A, L228A, W231A); not shown: GB1, N-terminal, cleaved
B3: CHMP4C121−233^S191C (domain or fragment, UniProt Q96CF2 121-233, looked up)
chain: B2 chain with A105I, A108L, A111W
notes: codon-optimized synthetic gene; Monomeric by AUC; also called charged multivesicular body protein 4C C-terminal fragment; not shown: GB1, N-terminal, cleaved

How the values were obtained:
Conditions in all cases: both partners purified
[1] = molecular target: T1, ALIX1−868∗^Strep (full-length ALIX with P801G and a C-terminal strep tag) (UniProt Q8WUM4 1-868, P801G); test: ITC; 300 to 500 μM CHMP4 construct injected into 30 to 50 μM ALIX1-868* Strep or Bro1 in the cell; 25°C; 20 mM sodium phosphate (pH 6.5), 1 mM TCEP, 2 mM EDTA; independent site binding model
T1 construct: the asterisk denotes P801G; Monomeric by AUC; source: E. coli, purified (Strep-Tactin Sepharose, Q-Sepharose HP, Superdex 200); not shown: Strep tag, C-terminal, kept
T1 sequence (looked up): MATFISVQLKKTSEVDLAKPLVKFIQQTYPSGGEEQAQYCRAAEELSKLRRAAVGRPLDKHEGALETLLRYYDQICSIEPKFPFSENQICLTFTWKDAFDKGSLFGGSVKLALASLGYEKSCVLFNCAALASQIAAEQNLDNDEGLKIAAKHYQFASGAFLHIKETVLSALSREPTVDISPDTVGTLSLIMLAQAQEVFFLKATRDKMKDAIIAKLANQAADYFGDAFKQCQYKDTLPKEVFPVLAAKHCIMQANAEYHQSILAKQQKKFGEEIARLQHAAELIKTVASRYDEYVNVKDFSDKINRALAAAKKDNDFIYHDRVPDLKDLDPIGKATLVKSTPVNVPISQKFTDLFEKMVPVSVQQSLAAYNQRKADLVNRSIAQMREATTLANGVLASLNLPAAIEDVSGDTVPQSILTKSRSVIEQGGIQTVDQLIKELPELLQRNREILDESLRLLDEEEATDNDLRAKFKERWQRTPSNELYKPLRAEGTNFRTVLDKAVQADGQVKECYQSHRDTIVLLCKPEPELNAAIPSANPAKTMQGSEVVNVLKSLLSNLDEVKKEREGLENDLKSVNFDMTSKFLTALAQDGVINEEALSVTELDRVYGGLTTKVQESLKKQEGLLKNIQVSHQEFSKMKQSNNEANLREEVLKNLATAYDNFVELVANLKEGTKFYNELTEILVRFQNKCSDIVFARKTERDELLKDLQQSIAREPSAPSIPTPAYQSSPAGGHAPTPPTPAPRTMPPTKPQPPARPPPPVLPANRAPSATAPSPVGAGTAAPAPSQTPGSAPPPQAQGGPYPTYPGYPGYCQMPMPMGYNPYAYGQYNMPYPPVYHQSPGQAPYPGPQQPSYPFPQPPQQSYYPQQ

[2] = molecular target: T2, ALIX-Bro1 (Bro1 domain of ALIX) (UniProt Q8WUM4 3-392); test: as above
T2 construct: Bro1 domain of ALIX; residues up to 349 are spoken of
T2 sequence (looked up): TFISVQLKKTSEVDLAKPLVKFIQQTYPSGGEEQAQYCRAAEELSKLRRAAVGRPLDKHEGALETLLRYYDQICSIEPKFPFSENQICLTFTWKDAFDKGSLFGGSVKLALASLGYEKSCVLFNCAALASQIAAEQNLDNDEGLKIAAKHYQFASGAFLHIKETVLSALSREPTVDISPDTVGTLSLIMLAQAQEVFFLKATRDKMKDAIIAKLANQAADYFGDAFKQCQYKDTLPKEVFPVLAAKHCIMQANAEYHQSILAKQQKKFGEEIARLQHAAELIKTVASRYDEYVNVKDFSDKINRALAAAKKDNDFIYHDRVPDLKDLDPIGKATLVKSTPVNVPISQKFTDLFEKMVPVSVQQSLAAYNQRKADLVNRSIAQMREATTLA

[3] = molecular target: T1, ALIX1−868∗^Strep (full-length ALIX with …); test: NMR titration; 30 μM 15N/2H-labeled CHMP4 construct with 90 μM unlabeled ALIX1-868* Strep; cross-peak heights; 30°C, 20 mM sodium phosphate (pH 6.5), 1 mM TCEP, 2 mM EDTA
[4] = molecular target: T1, ALIX1−868∗^Strep (full-length ALIX with …); test: ITC; as the other ITC but with 150 mM NaCl; CHMP4C construct injected into ALIX1-868* Strep; 25°C; for the AAA mutant 1500 μM into 300 μM ALIX

| Binder | Kd [1] [nM] | stoichiometry N [1] | Kd [2] [nM] | binding result [3] | Kd [4] [nM] |
| --- | --- | --- | --- | --- | --- |
| B1 | 900 ± 100 | ~1 | 1000 ± 200 |  |  |
| B2 |  |  |  | binds |  |
| B3 | 600 ± 100 | ~1 | 900 ± 100 |  | 6100 ± 700 |
